For 1 substance, MT binding time of diffusive beads results are on record in PMC4250405.

This assay addresses taxol-stabilized microtubules (UniProt Q6B856). The assay is described as follows: optical trap bead assay.

Consider “p150^Glued fragment p150 1-555 (from UniProt P28023 1-555) (domain or fragment)”, for which the MT binding time of diffusive beads was found to be 54.3 s.
